Measured values as given in the supplement of paper PMC9170038.

System: MS2 coat protein
Assay: apparent KD of MS2 coat protein; designed switch direction (-1 OFF switch, 1 ON switch): 1; higher = weaker reporter binding
Procedure, shortened: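 On Illumina chips, designed RNA switches with common flanks were made by stalled E. coli RNA polymerase. Titrations with SNAP-549-labelled MS2 coat protein, doubling from 0.7 or 1.5 nM to 3 µM, were done with no input, with 200 uM small-molecule ligand, or with an oligonucleotide input. Apparent KD is the median per design over clusters, from curve fits of normalised cluster fluorescence.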

[1] = input ligand: microRNA oligo, concentration not stated
[2] = Eterna round: R95, input ligand: FMN 200 uM
[3] = Eterna round: R95, input ligand: microRNA oligo, concentration not stated
[4] = Eterna round: R95, input ligand: none

Sequence	apparent KD of MS2 coat protein (input ligand: FMN 200 uM)	apparent KD of MS2 coat protein [1]	apparent KD of MS2 coat protein (input ligand: none)	apparent KD of MS2 coat protein [2]	apparent KD of MS2 coat protein [3]	apparent KD of MS2 coat protein [4]
GGUGCCAAUAAAGCCUACAUGAGGAUCACCCAUGUAUGUAGGCAGGAUAUCGUUUGCAAAGCAAACGAGAAGGGCCGAGGCACC [Mat - Same State NG 3 - JL Mod - D55] (Eterna round: R96, puzzle: Same State NG 3)	18 nM	29.3 nM	39.6 nM			
AGAUCAUGACGAGGAUAUGGUACAUGAGGAUCACCCAUGUAUGUAUCAUAACGCGAAUGACGAAACCAGAAGGCGUCGUGAUCA [Mat - Same State NG 2 - JL mod - D43] (Eterna round: R96, puzzle: Same State NG 2)	8.74 nM	11.9 nM	15.8 nM			
UAGAGAGGAAGCGAGGAUAUCGUGUGAGGUACAUGAGGAUCACCCAUGUUUGAUGUUGAGAGAGGCGAGAAGGCGCAGGAGAUUA [JR_SS2_Sub084] (puzzle: Same State 2)				34.1 nM	26.6 nM	35.6 nM
GAGCCAGUCCGAGGAUAUUCAUUAAAUUAAAUACAUGAGGAUCACCCAUGUAGGCGAGAGCCUUGGGAGAAGGCGGACUGGCUC [Xeonanisa>>4] (Eterna round: R96, puzzle: Same State NG 2)	15.5 nM	53.8 nM	97.6 nM			
GAGCCAGUCCGAGGAUAUUCAUAUUAACACAUGAGGAUCACCCAUGUGGGCUCAGAAGAGCCCUGGGAGAAGGCGGACUGGCUC [SS-NG2-LRO16] (Eterna round: R96, puzzle: Same State NG 2)	16.5 nM	232 nM	297 nM			
UGGAUCUAGGCUUGCCUGGGUCCAUGCUGACAUGAGGAUCACCCAUGUGCAUCCUACAAGCUUUUUGCUUGUCAGUU (Eterna round: R96, puzzle: Sensor for hsa-mir-208a)	575 nM	330 nM	289 nM			
GAGAGAUGAUUAGGAUAUCCGGUGAUAAUGAUAGGAGAAGGAAUUGACAUGAGGAUCACCCAUGUGGGAAUAAUCCAGAGAGAG [Parity 23 - Jieux - Same State NG 1] (Eterna round: R96, puzzle: Same State NG 1)	128 nM	54.4 nM	107 nM			
GGUCCAGCCUGAGCUGGACAAAAGCAUGUACAUGAGGAUCACCCAUGUCAUGUACAAGCUUUUUGCUCGUCUAAAAU [Mat - hsa-mir-208a - 101] (puzzle: Sensor for hsa-mir-208a)				508 nM	15.8 nM	629 nM
AUUAAACAUGAGGAUCACCCAUGUCAACAAAGUCGAGGAUAUGGGCAUAUUAUCUAAUAACCAGAAGGCGAAUAAU [salish99_ss1_r3_085] (Eterna round: R96, puzzle: Same State 1)		177 nM				
GGAGCCGGCCUAGGAUAUUUCAUAUAUUAACAUGAGGAUCACCCAUGUAGGCCAGAAGGCCUUGGGAAGAAGGAGGUCGGCUCC [Loop Effect - U25,U27,U28] (Eterna round: R96, puzzle: Same State NG 2)	15.7 nM	49.8 nM	79.6 nM			
AAAGAACAUGAGGAUCACCCAUGUGGAAGAGGCACAGGAUAUCACCUCGCAAGUGCAAGGUGAGAAGGGUGAUGAU [Islaonen] (puzzle: Same State 1)				123 nM	425 nM	205 nM
CGAAGUCGUAGAGGAUAUGGGUGGCCGGAGUCAACAUGAGGAUCACCCAUGUGCUAAUAUGAGAUCCAGAAGGCUGCGAACGGG [Eternabot solution 16] (Eterna round: R96, puzzle: Same State NG 2)	57.1 nM	31.4 nM	430 nM			
UCUUGGUUUUUGCUCGUUUUUUGUGUUGAACAUGAGGAUCACCCAUGUAUUGUACAGUCCAGUUUAAUAAUGGUCCG [JMF 55] (puzzle: Sensor for hsa-mir-208a)				36.9 nM	25.6 nM	38.1 nM
GGUCCAGCCUGAGCUGGACCGAAGCGUGUACAUGAGGAUCACCCAUGUCAUGUACAAGCUUUUUGCUCGUCUUAUUG [JL-shm-2.10 JL Mod] (puzzle: Sensor for hsa-mir-208a)				149 nM	18.8 nM	285 nM
AUUUUUCAUGCAGGAUAUGAUUAACAUGAGGAUCACCCAUGUGGUGUUGUGAGUAAGGAGAGUGAUCAGAAGGGCAUUUUUUUU [JMF's solution 94] (Eterna round: R96, puzzle: Same State NG 2)	837 nM	342 nM	503 nM			
CGGCGCUGUUGAGAGGAUAUGCGGUGAUGGACAUGAGGAUCACCCAUGUUAGCGAUAGCAUUACGGUAGAAGGCUCUACAGCUGC [Soteed Omei mod 6] (puzzle: Same State 2)					18.9 nM	
UACCAUAGUAUAUUGGUGCAAGCUUUUUGACAUGAGGAUCACCCAUGUACUCGUCUUAUGUGCAGUCCGUAGACUGC [JL-shm-2.22 Brourd mod] (puzzle: Sensor for hsa-mir-208a)				57.8 nM	13 nM	54.6 nM
GGAGCCAAGGCAGGAUAUUCAACAUGAGGAUCACCCAUGUGGGUAAUAAAGGCCAGAAGGCCUUGGGAGAAGGGCCAUGGCUCG [Xeonanis - 13 mod13] (Eterna round: R96, puzzle: Same State NG 2)	16.8 nM	9.17 nM	17.7 nM			
AUAAUACAUGAGGAUCACCCAUGUCAACAAAGUCGAGGAUAUGGGCAAAUAAAAUAAGAACCAGAAGGCGAAUAAU [salish99_ss1_r3_046] (puzzle: Same State 1)				34.2 nM	359 nM	240 nM
CCAGGACAUGAGGAUCACCCAUGUGCUUAAUGUGGAGAAUCUCAGGAUAUCAUGAGGAUUACCCAUGAGAAGGGAGAUCCGAGG (Eterna round: R96, puzzle: Same State NG 3)	437 nM	300 nM	483 nM			
UUGAUGAACUGAGGAUAUCGAGUCGUCUGUUUUUACAUGAGGAUCACCCAUGUGGGUUGUGGUAUCGAGAAGGCAGAUUACUUA [JR_SSNG2_Sub031] (Eterna round: R96, puzzle: Same State NG 2)	1670 nM	974 nM	2150 nM			
GUAUAACAUGAGGAUCACCCAUGUCAACAAAGUCGAGGAUAUGGGCAUAUAAUAUAUGAACCAGAAGGCGAAUAUG [Mat - Same State 1 - Mod of UCT - D36] (puzzle: Same State 1)				34.2 nM	37.9 nM	56.7 nM
AAAAGACAUGAGGAUCACCCAUGUAUGAAAAGUACAGGAUAUCACGCGCUAAAAUGCGAGUGAGAAGGGUGAAAAU [Oronen] (puzzle: Same State 1)				4350 nM	51.3 nM	180 nM
